What is called % inhibition is the drop in the measured response relative to a control, in per cent. Read a low % inhibition as little suppression.

The values below come from patent US20090297440A1 (published 2009).

The chains are these.
T1: purified recombinant C35 protein generated in E. coli (human, UniProt Q9BRT3 1-115, limits assumed)
T1 construct: Generated and purified from E. coli with cleavage of selection tags; also called hC35 protein; soluble C35 protein
T1 sequence: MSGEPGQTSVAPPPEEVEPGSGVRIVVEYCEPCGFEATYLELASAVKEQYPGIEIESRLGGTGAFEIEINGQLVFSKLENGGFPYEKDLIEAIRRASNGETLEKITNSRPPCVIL

T2: C35 protein, recombinant, bacterially synthesized (human, UniProt Q9BRT3 1-115, limits assumed)
T2 construct: also called hC35 protein; bacterially-synthesized C35
T2 sequence: T1 sequence

B1: hybridoma clone 1B3 antibody (antibody, mouse IgG1, V domains shown)
VH: EVQLQESGPSLVKPSQTLSLTCSVTGDSITSGYWNWIRKFPGNKLEYVGYISYSGGTYYNPSLKSRISITRDTSKNHYYLQLNSVTTEDTATYYCARGAYYGGAFFPYFDVWGAGTTVTVSS
VL: DVQITQSPSFLAASPGETITINCRASKYISKHLVWYQEKPGETKKLLIYSGSTLQSGLPSRFSGSGSGTDFTLTISSLEPEDFAMYYCQQHNEYPLTFGAGTKLELK
notes: Murine IgG1 from BCA34.hC35 immunization
B2: hybridoma clone 3E10 antibody (antibody, mouse IgG1, V domains shown)
VH: B1 VH
VL: B1 VL
notes: Murine IgG1 kappa from BCA34.hC35 immunization
B3: 3E10 monoclonal antibody (antibody, V domains shown)
VH: B1 VH
VL: B1 VL
notes: Mouse IgG1 kappa, tested as hybridoma supernatant
B4: 1B3 monoclonal antibody (antibody, V domains shown)
VH: B1 VH
VL: B1 VL
notes: as for B3

The first experiment deals with T1, purified recombinant C35 protein …. Description: ELISA, hybridoma supernatant on coated C35 protein. (In an ELISA, binding on a coated surface is turned into a signal by an enzyme label.)
For the molecule B1, the binding result is “binds”. On the same count and under the same terms, the entry for B2 is “binds”.

Another experiment has as its target T2, C35 protein, recombinant, bacterially …. Description: ELISA screen of hybridoma supernatants on plates coated with C35 protein.
Take B3: the binding result is on record as “binds”.

Take B4: the binding result is on record as “binds”.

Another experiment deals with HLA-A*0201 (human, UniProt A*02:01). Description: fluorescence polarization competition, test peptide at 100 uM against fluorescent-labeled peptide on HLA-A*0201; from Ymax, calibrated with irrelevant (0%) and relevant (100%) competitor. Background: Polarisation of emitted light reports the rotation of a fluorescent probe.
Turning to TYLELASAV [C35 peptide T38 to V46], the “% inhibition” value was determined as 47.3%.

For SVAPPPEEV [C35 peptide S9 to V17], the “% inhibition” value was determined as 96.9%. Turning to FEIEINGQL [C35 peptide F65 to L73], the “% inhibition” value was found to be 74.8%. Still for that read-out and setting: to ITNSRPPCV [C35 peptide I105 to V113] belongs 86.4%; to GTGAFEIEI [C35 peptide G61 to I69], 46.5%. Still for that read-out and setting: the figure for SGVRIVVEY [C35 peptide S21 to Y29] is 90.8%.
